Source: publication PMC3829478

Target: Frizzled-7 receptor, endogenous (rat (endogenous in fetal rat brain growth cone particles and hippocampal neurons))

percent of hippocampal neurons with an identifiable Tau-1 containing axon (stage 3) after 20 h with 1.35 nM Wnt3a: > 55%
Substance: Wingless-type family member 3A (recombinant mouse Wnt3a) (from UniProt P27467 19-352) (ligand)
